What was measured:
[1] = molecular target: T1, human CD123 SP1 ECD displayed on pDisplay-transfected cells (human, UniProt P26951 20-305); experiment: MSD-CAT on pDisplay cells
T1 construct: ECD anchored on the surface of stably transfected HEK293 cells by the PDGFR transmembrane domain; also called hCD123 SP1 cells; hCD123 cells
T1 sequence: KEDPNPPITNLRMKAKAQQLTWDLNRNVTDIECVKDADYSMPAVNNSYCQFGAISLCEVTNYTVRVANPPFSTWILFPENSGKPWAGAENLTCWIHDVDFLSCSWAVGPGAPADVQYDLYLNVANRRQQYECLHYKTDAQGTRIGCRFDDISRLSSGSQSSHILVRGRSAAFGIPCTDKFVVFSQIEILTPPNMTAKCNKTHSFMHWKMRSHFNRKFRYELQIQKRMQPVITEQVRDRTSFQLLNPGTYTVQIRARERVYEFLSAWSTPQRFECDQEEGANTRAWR

[2] = molecular target: T2, human CD123 SP2 ECD displayed on pDisplay-transfected cells (human, UniProt P26951 101-305); experiment: MSD-CAT on pDisplay cells
T2 construct: ECD anchored on the surface of stably transfected HEK293 cells; also called hCD123 SP2 cells; pDisplay CD123SP2
T2 sequence: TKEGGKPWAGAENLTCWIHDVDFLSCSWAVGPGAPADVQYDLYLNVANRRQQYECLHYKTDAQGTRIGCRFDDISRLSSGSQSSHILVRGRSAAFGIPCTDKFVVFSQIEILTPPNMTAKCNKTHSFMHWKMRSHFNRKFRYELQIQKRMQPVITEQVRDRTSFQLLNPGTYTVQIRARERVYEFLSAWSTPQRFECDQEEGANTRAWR

[3] = molecular target: T3, Recombinant human CD123 SP2 ECD protein (human, UniProt P26951 101-303); experiment: SPR Biacore 3000, captured mAb
T3 construct: also called rhCD123 SP2; CD123 ECD SP2
T3 sequence: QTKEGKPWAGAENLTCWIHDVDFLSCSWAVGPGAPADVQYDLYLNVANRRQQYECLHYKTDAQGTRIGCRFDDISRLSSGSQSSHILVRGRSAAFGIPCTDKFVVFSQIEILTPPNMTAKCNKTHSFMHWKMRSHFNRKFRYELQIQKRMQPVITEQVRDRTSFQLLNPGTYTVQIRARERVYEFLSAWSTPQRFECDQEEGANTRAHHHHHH
Description: (§1) Kinetic studies were performed at 25° C. using a Biacore 3000 (BIAcore, Inc., now part of GE Healthcare). […] Sheep anti-Human Fd specific antibody (The binding site Prod # PC075) was covalently attached to two flow cells (normally 3 and 4) of the carboxymethyl dextran coated gold surfaces (CM-5 Chip, Biacore). The carboxymethyl groups of dextran were activated with N-Ethyl-N′-(3-Dimethylaminopropyl)carbodiimide (EDC) and N-hydroxysuccinimide (NHS). The antibodies were coupled at pH 4.5 in 10 mM sodium acetate. Any remaining reactive sites on the surface were blocked by reaction with ethanolamine. […] Association data was collected for 2 min followed by 10 min of dissociation. The surface was regenerated with 30 μL of 100 mM H3PO4 100 μL/min. All samples were prepared in D-PBS containing 3 mM EDTA and 0.005% surfactant P20. Data reported is the difference in SPR signal between the flow cell containing the captured antibody or Fab and a reference cell without captured antibody or Fab. Additional instrumental contributions to the signal were removed by subtraction of the data from the blank injection from the reference-subtracted signal. Data were performed in triplicate and analyzed by fitting association and dissociation phases at all concentrations (global fit) with a 1:1 binding model using the BIAevaluation software (BIAcore, Inc.). […] Data presented is an average.

[4] = molecular target: T4, Recombinant human CD123 SP1 ECD-His tag protein (human, UniProt P26951 20-305); experiment: SPR Biacore 3000, captured mAb
T4 construct: bought from R&D Systems (#301-R3/CF); biotinylated for some assays; also called rhCD123 SP1; huCD123 ECD SP1
T4 sequence: T1 sequence
Description: as §1

[5] = molecular target: T1, human CD123 SP1 ECD displayed on …; experiment: MSD-CAT, hCD123 cells, assay-1; apparent KD (bivalent)
[6] = molecular target: T5, cyno CD123 ECD displayed on pDisplay-transfected cells (cynomolgus monkey); experiment: MSD-CAT on pDisplay cells
T5 construct: ECD anchored on the surface of stably transfected HEK293 cells; also called cynoCD123 SP1 cells; cynoCD123 cells
T5 chain: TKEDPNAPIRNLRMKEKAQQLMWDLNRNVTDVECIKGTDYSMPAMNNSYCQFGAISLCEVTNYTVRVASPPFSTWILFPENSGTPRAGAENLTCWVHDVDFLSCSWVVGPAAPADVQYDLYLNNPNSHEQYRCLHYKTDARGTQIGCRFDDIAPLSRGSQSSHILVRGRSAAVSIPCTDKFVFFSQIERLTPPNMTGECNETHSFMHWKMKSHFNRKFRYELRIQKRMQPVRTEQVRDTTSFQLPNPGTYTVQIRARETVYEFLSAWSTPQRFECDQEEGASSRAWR
Description: After equilibration the plate was centrifuged for 5 min ˜1000 rpm and free anti-CD3 detected on the supernatant. […] The assay buffer was removed without washing and 50 μL/well of 0.7 μg/mL of biotinylated antigen in assay buffer were added to MSD plates and incubated overnight (˜16 hr at 4° C.). After overnight incubation, the plates were blocked by adding 150 μL/well of assay buffer without removing coating antigen, incubated for ˜1 hr at ambient temperature and washed 5 times with wash buffer (assay buffer without BSA). 50 μL/well of the supernantants from samples plate were transferred to antigen-coated plates, incubated for 60 min, and then washed three times with wash Buffer. After this 50 μL per well of ruthenium labeled detection antibody(anti-human H+L) were added and incubated for 1 hr. After 1 hr the plates were washed and 150 μL of MSD Read Buffer (prepared by diluting 1:4 of stock into d. H₂O) were added per well. The plates were read immediately on the MSD Sector Imager 6000 Reader for luminescence levels. ECL signal detected by MSD was expressed in term of % free antibody in the mixture and the data was analyzed to determine affinity using a user defined equation (derived from the law of mass action) introduced in Prism software.

B1: I3RB18 (antibody, IgG1, V domains shown)
VH: EVQLVQSGAEVKKPGESLKISCKGSGYSFTSYWISWVRQMPGKGLEWMGIIDPSDSDTRYSPSFQGQVTISADKSISTAYLQWSSLKASDTAMYYCARGDGSTDLDYWGQGTLVTVSS
VL: EIVLTQSPGTLSLSPGERATLSCRASQSVSSSYLAWYQQKPGQAPRLLIYGASSRATGIPDRFSGSGSGTDFTLTISRLEPEDFAVYYCQQDYGFPWTFGQGTKVEIK
notes: IgG1; also called 13RB18; mAb I3RB18
In the case of B1, the Kd [1] is reported as 0.047 nM, the Kd [2] is reported as 0.049 nM and the Kd [3] is reported as 0.3 nM. It also gave a Kd [4] of 1.2 nM, a koff [4] of 0.000808 s⁻¹ and a kon [4] of 688000 M⁻¹ s⁻¹. The Kd [5] was 0.055 nM and the “fold weaker than to human CD123 SP1” value [6] was > 10 fold.
